# Experimental data from patent US20040063913A1 (Novartis, published 2004).
# Several values for one entry are separate records, joined by “and”; a condition that tells them apart may be missing. Identical values can stand only once.
# T1: Rec Human IL-1α (human, UniProt P01583 113-271)
# T1 construct: also called human IL-1alpha
# T1 sequence (looked up): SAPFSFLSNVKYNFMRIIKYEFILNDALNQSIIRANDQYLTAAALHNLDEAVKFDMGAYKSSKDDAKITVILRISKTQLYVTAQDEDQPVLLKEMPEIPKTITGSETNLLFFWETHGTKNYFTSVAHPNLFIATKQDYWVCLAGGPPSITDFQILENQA
# Experiments:
# [1] = target: T2, IL-1β derived from rhesus monkeys (rhesus monkey, UniProt P48090 117-269); test: not named
# T2 construct: also called rhesus IL-1β
# [2] = target: naturally produced IL-1β in conditioned medium from peripheral blood mononuclear cells (human, UniProt P01584 117-269, limits assumed); test: cell-based or functional assay
# [3] = target: T1, Rec Human IL-1α; test: Biacore, ACZ885 immobilized
# [4] = target: T3, Rec Cynomolgus IL-1β (cynomolgus, UniProt P79182 117-268); test: Biacore, ACZ885 immobilized
# T3 construct: also called Rec Cynomolgus IL-β; cynomolgous IL-1beta
# [5] = target: T4, recombinant human IL-1β (human, UniProt P01584 117-269); test: Biacore competition: ACZ885 immobilized on the chip, recombinant human IL-1β (1 nM) injected with increasing soluble IL-1 receptor type I (0-12 nM); % binding of IL-1β to ACZ885; mean ± SEM, n=4
# T4 construct: mature; also called Rec Human IL-1β; recombinant human IL-1beta
# Experimental: Half-maximum values (IC₅₀) were determined graphically using the Origin 6.0 software The mean±SEM is given (n=4).
binding result [1],"IC50, inhibition of IL-1β-induced IL-6 secretion from human dermal fibroblasts, cond. medium (NVP-ACZ885 Batch1) [2]","IC50, inhibition of IL-1β-induced IL-6 secretion from human dermal fibroblasts, cond. medium (NVP-ACZ885 Batch2) [2] [ng/mL]",binding result [3],binding result [4],IC50 [5] [pM],Binder
no binding,54 pM and 9.1 ng/ml,7.4,no binding (tested: 8 nM),no binding (tested: 8 nM),,"ACZ 885 antibody (antibody, human IgG1, V domains shown, also called NVP-ACZ885) VH: QVQLVESGGGVVQPGRSLRLSCAASGFTFSVYGMNWVRQAPGKGLEWVAIIWYDGDNQYYADSVKGRFTISRDNSKNTLYLQMNGLRAEDTAVYYCARDLRTGPFDYWGQGTLVTVSS VL: EIVLTQSPDFQSVTPKEKVTITCRASQSIGSSLHWYQQKPDQSPKLLIKYASQSFSGVPSRFSGSGSGTDFTLTINSLEAEDAAAYYCHQSSSLPFTFGPGTKVDIK"
,,,,,680,"recombinant human soluble IL-1 type I receptor (receptor, UniProt P14778 18-332, looked up, Called soluble; also called soluble human IL-1 type I receptor; recombinant human soluble receptor I) LEADKCKEREEKIILVSSANEIDVRPCPLNPNEHKGTITWYKDDSKTPVSTEQASRIHQHKEKLWFVPAKVEDSGHYYCVVRNSSYCLRIKISAKFVENEPNLCYNAQAIFKQKLPVAGDGGLVCPYMEFFKNENNELPKLQWYKDCKPLLLDNIHFSGVKDRLIVMNVAEKHRGNYTCHASYTYLGKQYPITRVIEFITLEENKPTRPVIVSPANETMEVDLGSQIQLICNVTGQLSDIAYWKWNGSVIDEDDPVLGEDYYSVENPANKRRSTLITVLNISEIESRFYKHPFTCFAKNTHGIDAAYIQLIYPVT"
